Tests used:
[1] = molecular target: T1, Human CD79b (AA 29-159)-6-His (human, UniProt P40259 29-159); experiment: kinetic binding assay, method not named; recombinant human CD79b (29-159)-6-His
T1 construct: range 29-159; No linker between CD79b and the tag is stated
T1 sequence: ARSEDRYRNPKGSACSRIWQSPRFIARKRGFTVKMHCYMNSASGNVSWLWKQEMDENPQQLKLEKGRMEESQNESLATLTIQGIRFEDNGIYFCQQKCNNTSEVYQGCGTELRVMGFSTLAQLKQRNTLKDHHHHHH

[2] = molecular target: T2, Human CD79b (AA 29-159)-6-His (Homo sapiens, UniProt P40259); experiment: Binding affinity to recombinant human CD79b (ka, kd, KD)
T2 construct: 6-His (C)
T2 sequence (P40259 29-159): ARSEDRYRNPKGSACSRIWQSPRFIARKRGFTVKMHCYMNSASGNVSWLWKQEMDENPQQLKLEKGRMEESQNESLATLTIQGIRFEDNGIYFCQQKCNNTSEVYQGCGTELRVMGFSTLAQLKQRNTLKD
From the text: The binding ligand used in the assay was recombinant human CD79b having the amino acid sequence of Ala29-Asp159 of human CD79b, which was fused with a 6-His tag at the C terminus. Table 3 provides the measured association rate (ka), dissociation rate (kd), and equilibrium dissociation constant (KD). Table 3: Binding Affinity

[3] = system: DLBCL GCB CDX (OCI Ly19) Tumors; experiment: In vivo growth inhibition of xenografted tumors
From the text: Based on an endpoint of 1000 mm3.

Polatuzumab vedotin-piiq (antibody)
Kd [1]: 5 nM
koff [1]: 0.0087 s⁻¹
kon [1]: 1.7e+07 M⁻¹ s⁻¹

Polatuzumab vedotin-piiq
ka ([2]; association rate): 1.7e+07 M⁻¹ s⁻¹
kd ([2]; dissociation rate): 0.0087 s⁻¹
Kd ([2]; equilibrium dissociation constant): 5 nM
tumor growth inhibition and tumor growth delay ([3]; FIG. 2, compared to vehicle controls, all dose levels tested): statistically significant
CR (%) ([3]; dose 3x, control Vehicle): No CRs
PR (%) ([3]; dose 3x, control Vehicle): 0%
TR (%) ([3]; dose 3x, control Vehicle): 0%
TGD (%) ([3]; dose 3x, control Vehicle, end of study): 90%
CR (%) ([3]; dose 3x, control Vehicle, listed as polatuzumab vedotin-piiq): 0%
TGI (%) ([3]; dose 3x, single bolus intraperitoneally on day zero, control Vehicle, day 10 post dosing): 84%

B1: ADC-1 (antibody, human IgG1, kappa, V domains shown)
VH: EVQLVESGGGLVQPGGSLRLPCAASGFTFYNYWITWIRQAPGKGLEWVANINQAGSEKSYLDAVKGRFTISRDNAKNSVYLQMNSLRVEDTAVYYCAGGFRAFDIWGQGTMVTVSS
VL: DFVLTQSPLSLSVTPGEPASISCRSSQSLLHSSGESYLDWFLQRPGQSPQVLIYLGSHRASGAPDRFSGSGSGTDFTLKISRVEAEDVGVYYCMQALQTPLTFGGGTRVEIKR
modifications: Top1i linker drug LD1 (formula III) linked via sulfhydryl groups of cysteine residues; n is 6 for the whole antibody (DAR = 6.05); conjugated positions and split between the chains not stated
notes: Antibody drug conjugate of Ab1 (IgG1, human kappa); also called anti-CD79b Top1i ADC; anti-CD79b ADC of formula (IV) with Ab1, n is 6
Kd [1]: 4 nM
koff [1]: 0.00068 s⁻¹
kon [1]: 170000 M⁻¹ s⁻¹
